Results taken from patent US20170361126A1, “Compositions and Methods for Inducing Nanoparticle Mediated Microvascular Embolization of Tumors” (Vindico NanoBioTechnology, LLC, priority 2011, published 2017).
Each block holds one molecule with its values, some of them ahead of it.

Legend:
[1] = Biodistribution/pharmacokinetics after IV injection in 4T1 tumor-bearing mice; format: in vivo, balb/c mice; conditions: via the kidneys and into the bladder
Protocol: In example studies, 0.5×10^6 to 1×10^6 4 T1 mouse mammary carcinoma cells were injected into the mammary fat pads of balb/c mice. Once the tumors were greater than 5 mm in diameter, mice were randomized and treated via tail vein catheter with PEMs (at 100 μL of 2.5 mg/mL Mb, corresponding to 50 mg/mL polymer suspensions), empty polymersomes (at equivalent polymer doses), and NIR-Mb (at equivalent myoglobin doses) (n=5 per group). NIR-Mb and PEM were reduced to their oxy-myoglobin form prior to treatment, following protocols discussed above. Mice were sacrificed at 24 h (for biodistribution/pharmacokinetic studies) or at 6-9 days (for histology and toxicology assessment following tumor efficacy studies). […]
For all biodistribution studies, NIR imaging of polymersomes, NIR-Mb and PEM was conducted with an MS® Kinetic Imaging System (Perkin Elmer, AeX=745 nm, Aem=810-875 nm) equipped with a Xenogen XGI-8 gas anesthesia system. Fluorescence images were analyzed with Living Image® 4.2 software by measuring radiant efficiency of regions of interest (ROIs). […]
For the pharmacokinetic studies, 15-100 μL blood samples were drawn (using a 5.5 mm lancet, Goldenrod) from the submandibular vein of the mouse and collected directly into heparinized capillary tubes (Kimble). […] The total radiant efficiency of the plasma in each capillary tube was measured in a region of interest of consistent dimensions. […]

[2] = Serum chemistry panel and liver histology of treated tumor-bearing mice; format: in vivo; conditions: n=5 mice per treatment; FIG. 21
Protocol: In example studies, 0.5×10^6 to 1×10^6 4 T1 mouse mammary carcinoma cells were injected into the mammary fat pads of balb/c mice. Once the tumors were greater than 5 mm in diameter, mice were randomized and treated via tail vein catheter with PEMs (at 100 μL of 2.5 mg/mL Mb, corresponding to 50 mg/mL polymer suspensions), empty polymersomes (at equivalent polymer doses), and NIR-Mb (at equivalent myoglobin doses) (n=5 per group). NIR-Mb and PEM were reduced to their oxy-myoglobin form prior to treatment, following protocols discussed above. Mice were sacrificed at 24 h (for biodistribution/pharmacokinetic studies) or at 6-9 days (for histology and toxicology assessment following tumor efficacy studies). In both cases, EF-5 was used to stain for hypoxia and Hoechst solution for perfusion. Tumors were collected at sacrifice. Immunofluorescence (IF) was carried out to image EF-5 and Hoechst distribution throughout the tumors. The same tumor sections were also stained with hematoxylin and eosin (H&E) for immunohistologic (IHC) analysis. Blood was collected via cardiac puncture at sacrifice; plasma was isolated and stored at −80° C. for later analyses.
FIG. 21 provides results of a serum chemistry panel done for a set of tumor-bearing mice injected with each of the following treatments (n=5 mice per treatment): NIR-myoglobin (control), empty polymersomes (control), and PEMs. […]

[3] = Oxygen equilibrium binding curves (Hemox Analyzer, Hill model); conditions: partial pressure of O2 at 50% saturation; 37° C.
Protocol: Oxygen equilibrium binding curves of PEM and free Mb dispersions may be measured using a Hemox™ Analyzer at physiological temperature (37° C.). In brief, samples may be allowed to saturate to a pO2 of 147 mm Hg using compressed air and then deoxygenated using a compressed nitrogen stream. UV-Vis absorbance measurements of oxygenated and deoxygenated samples may be recorded as a function of pO2 via dual wavelength spectroscopy. Oxygen-PEM/myoglobin equilibrium curves may be fit to a four-parameter (A0, A∞, P50, n) Hill model:
in which A0 and A∞ represent the absorbance at 0 mm Hg and at full O2 saturation, respectively. The pO2 represents the partial pressure of O2, and P50 represents the partial pressure of O2 where PEM/Mb is 50% saturated with oxygen. Lastly, ‘n’ represents the cooperativity coefficient of PEM/Mb. […] The lower O2 affinity (higher P5o) of PEM than free myoglobin may be attributed to the shielding effect of the polymersome membrane, which was further found to delay the kinetics of O2 binding to PEM.

B1: NIR-Mb: near-infrared fluorophore (IRDye800cw NHS) covalently attached to the lysines on horse skeletal myoglobin; negative control (conjugate, UniProt P68082 2-154, looked up)
Myoglobin: GLSDGEWQQVLNVWGKVEADIAGHGQEVLIRLFTGHPETLEKFDKFKHLKTEAEMKASEDLKKHGTVVLTALGGILKKKGHHEAELKPLAQSHATKHKIPIKYLEFISDAIIHVLHSKHPGDFGADAQGAMTKALELFRNDIAAKYKELGFQG
modifications: IRDye800CW NHS on lysines
notes: near-infrared fluorophore (IRDye800cw NHS) covalently attached to the lysines on horse skeletal myoglobin; negative control
plasma clearance [1]: extremely rapid plasma clearance
serum chemistry panel [2]: no consistently elevated levels for any parameter

P50 [3]: ~2 mm Hg
B2: free Mb: free (unencapsulated) myoglobin, a cytoplasmic heme protein (protein, UniProt P02144 2-154, looked up)
Myoglobin: GLSDGEWQLVLNVWGKVEADIPGHGQEVLIRLFKGHPETLEKFDKFKHLKSEDEMKASEDLKKHGATVLTALGGILKKKGHHEAEIKPLAQSHATKHKIPVKYLEFISECIIQVLQSKHPGDFGADAQGAMNKALELFRKDMASNYKELGFQG
